Laboratory results as given in the DeepSol protein solubility set.

Test: soluble on expression in E. coli; label from the status in PepcDB or PDB records

Sequence	soluble on expression in E. coli
MGSSHHHHHHSSGLVPRGSHMEPAATTYGTSTSVGVHNAYEKEKYRYFADALDSGAALLELDLWSNALGRSWRVSHSNPLGNNSNCEGAANASELRTKSRDQDFAGCLSDMRAWHDAHPGHRPILLKIEMKDGFNAKGGRGPAEFDALIRQKLGDAVYGPGDLTGGHATADEAVRAGGWPSRADLAGKFLFELIPGTVEEKNPFDKLWTDVEYAGHLKDLAAQGKLAQSTAFPAVHGAAPGDPRERYADPALRPWFVVFDGDAATYLNGSIDTSWYDTRHYLLIMTDAHNVPPVIDGTHPTEAEALARVRQLAAAHASFATADWYPLPSVLKTVVPRGA	soluble
MSLRLEDIQAFLNVVELGSISAAAERMSLSKSVISKRVSDLERHLGVRLLYRSTRNVEPTEAGGFFYKSAKASLQDLNNAAESVALRENDLCGELRVMAPMSFGTLWLGPLVMEFMARNPRLEVVLQLDDRIVDFEKEGYDLAIRITRLQDSSLIARQLGTSRRVVCCSPEYLERHGPLQRIEDILCHPCIGYSHNTPSQLWSFEPRVAGEPARMITPRGRFNTNNGQTMRDAAVRGLGLAMLPLFIAAEDLAAGRLVEALPQERPLDDLIYAMYSRAATLSPKVKLFVQFLQQALGSPPWGVR	not soluble
AEKRNIFLVGPMGAGKSTIGRQLAQQLNMEFYDSDQEIEKRTGADVGWVFDLEGEEGFRDREEKVINELTEKQGIVLATGGGSVKSRETRNRLSARGVVVYLETTIEKQLARTQRDKKRPLLHVETPPREVLEALANERNPLYEEIADVTIRTDDQSAKVVANQIIHMLESN	soluble
MSLPIRVPDELPAVNFLREENVFVMTTSRASGQEIRPLKVLILNLMPKKIETENQFLRLLSNSPLQVDIQLLRIDSRESRNTPAEHLNNFYCNFEDIQEQNFDGLIVTGAPLGLVEFNDVAYWPQIKQVLEWSKDHVTSTLFVCWAVQAALNILYGIPKQTRTDKLSGVYEHHILHPHALLTRGFDDSFLAPHSRYADFPAALIRDYTDLEILAETEEGDAYLFASKDKRIAFVTGHPEYDAQTLAQEYFRDVEAGLDPEVPYNYFPHNDPQNKPRASWRSHGNLLFTNWLNYYVYQITPYDLRHMNPTLDEGHHHHHH	soluble
MSDKDEGTERLVALLERLGVNRWAARSEADDAVVNARNLVPMFLLLREVWKHVVREGDTSWLQKDARLLAQEPEAGWSDMRRALASLQAKGATAQELTDVVKGKQVSLLYDVFETLCDDDPDLEAEFSGIGWGVFETDAVGRPGRRMDRLFAPVVTLDPTGRCMGPRE	not soluble
MSLPKITKIEVQKKNKERFNLFLDEQFEMGIDIDTLVKFNLKKGQQLEAADMAEIQKYDHYRIGLNKAIQYLSYKKRTEKEVIQYLQKEEISEQAISEVIEYCYREKLIDHQDYAESLKNTMIRTTDKGPKIYQQKLYQLGIEPNIIEIFTELYREQQELDDIIQIAEKISKTKKGPQNKVKEKVMQSLIQKGFEMETIHAVLNEMDFTQDEAVLDDLLQRDLEKIYNKNRKKYTQQKLISKTIEGLMRKGYKYDKIKAKLEESGIADGTEEIEEGHHHHHH	soluble
MAGSVGEETEPEWIKRVKLEGAVPCLKPDDNCKNGWTTPSPDTFMVRGPKYFSDKVKIPAGDFLLKPLGFDWIKGPKKLSEILSYPSSRIRKVIDEEFQKDGTKPFVWAFNLQLPHKDNYSAVAYFVTTEPILEGSLMDRFLKGDDGFKKSRLKLIANIVKGPWIVRKAVGEQAICVIGRALSCKYVSGENFVEIDVDIGSSMVASAIVHLAFGYVTTLTVDLAFLIESQTEAELPEKLLGAVRFSELQTESATSIELSSSTSNDQWDQTTSERSSWWKSIGNGFSNLLNQDTANMNNTSHGDIQKDEHVQKQ	soluble
SSEAKKGHVLFFPYPLQGHINPMIQLAKRLSKKGITSTLIIASKDHREPYTSDDYSITVHTIHDGFFPHEHPHAKFVDLDRFHNSTSRSLTDFISSAKLSDNPPKALIYDPFMPFALDIAKDLDLYVVAYFTQPWLASLVYYHINEGTYDVPVDRHENPTLASFPGFPLLSQDDLPSFACEKGSYPLLHEFVVRQFSNLLQADCILCNTFDQLEPKVVKWMNDQWPVKNIGPVVPSKFLDNRLPEDKDYELENSKTEPDESVLKWLGNRPAKSVVYVAFGTLVALSEKQMKEIAMAISQTGYHFLWSVRESERSKLPSGFIEEAEEKDSGLVAKWVPQLEVLAHESIGCFVSHCGWNSTLEALCLGVPMVGVPQWTDQPTNAKFIEDVWKIGVRVRTDGEGLSSKEEIARCIVEVMEGERGKEIRKNVEKLKVLAREAISEGGSSDKKIDEFVALLT	soluble
LEQARTMSVDEMAANPEINRLMMARIEAAQDSLAAYEKVKYITLLAEPFTLEKGELTETMKLKRRVINEHYAEAIEKMYL	not soluble
MGSDKIHHHHHHMSAPLLSVRDLSVAFHQGESQSLAVDHVSFDIAPGEILALVGESGSGKSVSAASILKLLPYPAASHPSGQILFDGRDLLTLSEPALRAVRGNDITMIFQEPMTSLNPLHSIEQQIGEILELHQSLTGDAARKRTLELLLQVGIREPEKRLSAFPHELSGGQRQRVMIAMALANRPKLLVADEPTTALDVTVQAQILELLAGLKREHGMSMLFITHDLGIVRKFADRVCVMTGGKIVESGPVEAIFANPQHAYTRKLLASEPRGVPPETDLAKPVVMEGQEIRVWFPIKAGFLRRVVDNVKAVDGVDLTLRAGQTLGVVGESGSGKTTLGLALARLISSRGRIGFLGKNIDGYSFKQMRPLRDRLQVVFQDPFGALSPRMSVGDIIAEGLRVHERGLTAAERDRRVCWALEEVGLDIATRWRYPHEFSGGQRQRIAIARAMVLKPRFVMLDEPTSALDMTVQAQVVDLLRDLQSRHDLAYLFISHDLKVVKALANDIIVMRSGKVVEQGPAQEVFTAPKQDYTKALLAAAFDLKAMNIGGVSQ	not soluble
ASQIERNLARISAEKNRLDTILRGMGEGLMVSDAGGTVTLVNPAFLELFGLTQSVEGRQIIEIARFPELHETFRAVVSSRSEHVEEMTLPLGDEKQVLTHWVPLMEEDELRGVVAVFHDIS	not soluble
SNAMSQKLYNMKFAAVYLALIAKVERKGGKAESVHQVTSWLTGYEVSDVLACLDRDVTYGDFFRQAPYYVPERIAITGKICGVRIEEIDDPLMQEIRRLDKLVDWLAKGKTSQQVLEKYEKHK	soluble
MAHHHHHHMGLEIFEIDTSTPHTGVVIDGTTACREANSGWVTLRAKTPLSAGQCQWAMKVIDQGEGNDGSGLMMGLLPRLNSQQEVAMGSKYISELGGWCLSRAGDSYGCWKCDKMPFSTGCVVEFDWDAASRTLYIVSGKRKASGHIPNVSEADVVYPAFSMFYLNQKLAFV	soluble
MGSDKIHHHHHHMAVILFDIDGTLIDSTDQMTEAIHLAMEDMPHLVKPSKASVQSSYGLAGNAFWRKAIPDASENDIKEIRRKRHHHLEQTMQNQDVLFDGIRELLEQLTNQGHIVSTASNCGVHYLNLVLDSQNIRSYFTSPKCLESVNGKQKADILAAHREEFSEVDYLMVGDRSSDVEAARLQNMPVAICCFGFGTEQEWKTADHQLETPLDLLKFV	not soluble
MAHHHHHHMARRLQQAWRAFAARRERRYRAAAVAQCARKRLEREEVWQLVWQDQFTELDMLCMLERQYIEEQQHVKRVRLYKYLCDPNGATNDDCGTQTPGAFNADADLLKWATLYDE	not soluble
MNVTEQNSHQILIQKLLVSIHYLTLFRDELKLVERTPSILGGEFPAHLVQSELGDIVAAIDTLDMQQRLIESTFWYEESAFKLMNKTLDIVDNWIKGVDHLIDLCQSKEVFQIIIGDKRIRVFGVLSDVFSSLKVSALSLKEAPIPDVLYEHIQRVNLEEEAFIKYYQSPKVPTGEFE	not soluble
MSTRNSRSELEKTAVQLFRKLGTRTVLFHQAAAQALGLFPTDLKSADILNEAGPMTAGELGKKTGLSTGSVTALVDRLEKAGVCGSWKRTPNDRRRVVIVPLTASKKHIKDLFRPLSESTMDLCREYTEEELELIFSFVGKAADIMEEELERLKQ	not soluble
MSESCNSLTVVFTDSPKIDDHLFAKAIRWADQNPDDTIFWARRKALERIPEIDVEFSMKAGALRRIRFGYSSKKLLQGCIDIALKASIGSEVAAIFCSMSIPQDCPELGCLLAALANFCNVDDGRAVVVIDLRDDNDDEKQEGVEESDPFENANFLEEEIVENPKELSNEPRETQTQEEFLEKLKRVASIYTKNVLLFDGNEEKFSNCF	not soluble
MGSDKIHHHHHHMFLQPLLAKKIIAEVKKMYEREVIIVNTDGLIMAGTNDERVGQFHEGALICAKERRSVIITKEDETRLKGVKAGINLPVFFDHDVISVFGLTGEPAEIQPFGELLRKMTELFIKESRHLEQSQWRERMLESFMIDWLQLKEWSPSFLEKAQLLGVDLSSRRQMILIQGYEWSPHDIEQMARSWKSSYPADLFIRWGNERILINHEVPQHEQRDRLLRKILHICSFANTASSQYTAAGAGRAVASSSLTDSYEQAEKALAVSLKRKTPIFEEDLKLDMCLTEISPGTRNEFPQRVLGKALEHQELMNTIRTFFHHDLSLKQTAEDMHIHINTLRYRLAKAEQLTGLRFDRTEDVVTMYVALYFLDQDTK	not soluble
MATVTTHASASIFRPCTSKPRFLTGSSGRLNRDLSFTSIGSSAKTSSFKVEAKKGEWLPGLASPDYLTGSLAGDNGFDPLGLAEDPENLKWFVQAELVNGRWAMLGVAGMLLPEVFTKIGIINVPEWYDAGKEQYFASSSTLFVIEFILFHYVEIRRWQDIKNPGSVNQDPIFKQYSLPKGEVGYPGGIFNPLNFAPTQEAKEKELANGRLAMLAFLGFVVQHNVTGKGPFENLLQHLSDPWHNTIVQTFN	soluble
MSLYIHQTACISAQPAFADPASDHVAAAVDNKLYAIDSNYDSIPPNVLRRLGKAVKMGIATGHSLISKHPVDGIVLGTANGGLEDCIKFLNQIIEFEEGRLTPTNFVQSTTNAIAGQLGIMSSNKGYNITHVHRGLAFENALIDIEMLLNEYPSNTYLLGGVDEISAYNYTIEKLAGTYKSETISSAQLFSSQTTGTIAGEGAAMFLVNTNRLNAAAAIKGIKTYNNPSPEAIKKHLEDFLAKHLPQNEKIDVLFSGKNGDVCLNSFYEVCAQQLGKETTVCYYKQLTGDFPTVTALALWFATRFIEDSNNLPVLNIKKTGAVKNILLYNTYKGYQHSFILVSEGHHHHHH	not soluble
AHHHHHHGSKKFPAYLASWEDIENWAKAGAWKVLESGWMPDVIVGLARGGWIAARLYCDYLGVKDLVSIKVEHWGVTATPDGRARLKYGAQYDFEGKKVLIVDDITDTGESMSLAYEYMKSRNPAEIRTATLLNIKGSKFVPDYYAKDIDWVWVVFPWNFVEDMINLTNNLFEEKDKLTTDEIISLFKELHGIEVPREKLEEALRMAEKRKIFKFENGFWTKV	soluble
MGSDKIHHHHHHVRVDLRHISDEKKLSYSDVLWQYVKQDFLWRINNAGLGNVLWLQKPYFATGEKLAFYYVYGSPGGRAEDNGTPFDVLRNIIIGNAGLNSHSDVVWTNAELSKQAAKVSANEPDASDMQPLIHTWNLSAMCDGGEVPFAVRLERLNEADAGVPMTKNIVFMNSFYGDADVCIFSPESRLGEQLFEIMDKLELVSDMKPYGDAYEILKRYSVSGRQIIDIFKVRAKNKPKTVSMHRLEQVYGYRSYAYMRRRWERYCKRLTRQQMAYANAGWEETLDLILDFLTPVWSAFCNDEIFYDDWMPELGRFLG	not soluble
MLRLLLRHHFHCLLLCAVWATPCLASPWSTLTANQNPSPPWSKLTYSKPHDAATFYCPFLYPSPPRSPLQFSGFQQVSTGPECRNETLYLLYNREGQTLVERSSTWVKKVIWYLSGRNQTILQRMPQTASKPSDGNVQISVEDAKIFGAHMVPKQTKLLRFVVNDGTRYQMCVMKLESWAHVFRDYSVSFQVRLTFTEANNQTYTFCTHPNLIVLEHHHHHH	not soluble
